This experiment has as its target T1, Hs CAF1, purified for crystallization (human, UniProt Q9UIV1-1 1-285).
T1 construct: human CAF1 (CNOT7); model holds residues Q10-S266 and G274-E280 (chain B); residues up to E280 are seen in the map, so it is probably the whole protein; also called CNOT7; source: E. coli Rosetta2, purified (GSTrap, PreScission cleavage, gel filtration)
As to the kind of experiment: crystal structure; complex of purified NOT1 MIF4G and CAF1 (1.2:1) isolated by gel filtration; hanging drop, 4°C, 0.1 M Tris-HCl pH 8.2, 16% PEG 8000, 0.2 M MgCl2, 0.2 M ammonium sulfate; 2.70 Å. The conditions noted are these: both partners purified. For orientation: Size exclusion chromatography separates by hydrodynamic size, large species first.

T1 sequence (Q9UIV1 whole entry, the tested form may be a part): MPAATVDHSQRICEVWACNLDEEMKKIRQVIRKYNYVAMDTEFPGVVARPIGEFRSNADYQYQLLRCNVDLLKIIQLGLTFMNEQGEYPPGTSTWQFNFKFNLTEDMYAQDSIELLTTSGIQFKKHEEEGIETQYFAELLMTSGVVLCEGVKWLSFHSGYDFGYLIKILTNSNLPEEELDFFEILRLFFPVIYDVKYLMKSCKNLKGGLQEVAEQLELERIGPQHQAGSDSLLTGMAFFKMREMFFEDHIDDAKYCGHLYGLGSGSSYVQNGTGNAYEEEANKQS

B1: MIF4G domain of Hs NOT1 (residues 1093-1317), purified for crystallization (domain or fragment, human, UniProt A5YKK6-1 1093-1317, looked up)
chain: ENIQEKIAFIFNNLSQSNMTQKVEELKETVKEEFMPWVSQYLVMKRVSIEPNFHSLYSNFLDTLKNPEFNKMVLNETYRNIKVLLTSDKAAANFSDRSLLKNLGHWLGMITLAKNKPILHTDLDVKSLLLEAYVKGQQELLYVVPFVAKVLESSIRSVVFRPPNPWTMAIMNVLAELHQEHDLKLNLKFEIEVLCKNLALDINELKPGNLLKDKDRLKNLDEQLS
notes: His6 fusion is PreScission-cleavable; also called NOT1 MIF4G domain; source: E. coli BL21 Codon Plus RIL, purified (Ni Sepharose IMAC, gel filtration)
For the molecule B1, the binding result is “binds”.
